Assay results: patent US6541220 (GENERAL HOSPITAL, dated 2003)
No end group written: not given here.

B1: [Tyr34]hPTH(1-34)amide (peptide)
peptide: SVSEIQLMHNLGKHLNSMERVEWLRKKLQDVHNY-NH2
notes: Synthetic analog of human PTH(1-34) with Tyr at 34
B2: 125I-labeled [Nle8,21,Tyr34]rPTH-(1-34)amide (peptide)
peptide: AVSEIQLXHNLGKHLASVERXQWLRKKLQDVHNY
modifications: Nle at 8 and 21; C-terminal amide; 125I-labeled
notes: Synthetic analog of rat PTH(1-34), used as radioligand

Columns and labels:
[1] = biological target: T1, zebrafish PTH1R receptor, clone zPTH1R#29 (shorter 5' UT, 149 bp), transiently expressed in COS-7 cells (zebrafish (Danio rerio)); test: cell-based or functional assay
T1 chain: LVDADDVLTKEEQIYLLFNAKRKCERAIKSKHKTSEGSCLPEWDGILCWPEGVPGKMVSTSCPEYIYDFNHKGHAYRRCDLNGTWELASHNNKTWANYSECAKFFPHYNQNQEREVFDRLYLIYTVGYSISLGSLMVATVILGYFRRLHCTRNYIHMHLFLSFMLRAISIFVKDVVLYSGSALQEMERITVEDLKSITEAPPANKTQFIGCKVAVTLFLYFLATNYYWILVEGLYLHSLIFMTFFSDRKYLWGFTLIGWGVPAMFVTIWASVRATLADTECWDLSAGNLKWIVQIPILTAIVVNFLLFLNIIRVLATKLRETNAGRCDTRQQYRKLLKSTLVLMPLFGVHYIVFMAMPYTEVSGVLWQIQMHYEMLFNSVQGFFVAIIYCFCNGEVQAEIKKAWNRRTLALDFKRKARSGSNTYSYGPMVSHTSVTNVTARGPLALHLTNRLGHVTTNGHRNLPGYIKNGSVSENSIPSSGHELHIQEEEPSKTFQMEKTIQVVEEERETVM

[2] = biological target: T2, zebrafish PTH1R receptor, clone zPTH1R#25 (longer 5' UT, 391 bp), transiently expressed in COS-7 cells (zebrafish (Danio rerio)); test: cell-based or functional assay
T2 chain: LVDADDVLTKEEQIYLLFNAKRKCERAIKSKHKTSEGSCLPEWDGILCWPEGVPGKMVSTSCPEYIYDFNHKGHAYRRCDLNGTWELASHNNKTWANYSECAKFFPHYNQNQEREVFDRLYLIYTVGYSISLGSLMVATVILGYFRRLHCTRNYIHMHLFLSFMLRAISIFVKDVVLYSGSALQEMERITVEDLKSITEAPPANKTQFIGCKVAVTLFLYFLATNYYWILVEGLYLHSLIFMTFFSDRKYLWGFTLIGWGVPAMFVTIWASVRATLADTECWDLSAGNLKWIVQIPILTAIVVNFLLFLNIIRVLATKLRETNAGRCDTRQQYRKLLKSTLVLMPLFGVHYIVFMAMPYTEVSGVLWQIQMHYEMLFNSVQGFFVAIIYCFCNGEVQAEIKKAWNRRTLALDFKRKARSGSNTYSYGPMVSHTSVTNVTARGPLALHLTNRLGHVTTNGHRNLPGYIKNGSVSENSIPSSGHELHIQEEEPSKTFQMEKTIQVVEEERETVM

[3] = biological target: T3, zebrafish PTH3R receptor, transiently expressed in COS-7 cells (zebrafish (Danio rerio)); test: cell-based or functional assay
T3 chain: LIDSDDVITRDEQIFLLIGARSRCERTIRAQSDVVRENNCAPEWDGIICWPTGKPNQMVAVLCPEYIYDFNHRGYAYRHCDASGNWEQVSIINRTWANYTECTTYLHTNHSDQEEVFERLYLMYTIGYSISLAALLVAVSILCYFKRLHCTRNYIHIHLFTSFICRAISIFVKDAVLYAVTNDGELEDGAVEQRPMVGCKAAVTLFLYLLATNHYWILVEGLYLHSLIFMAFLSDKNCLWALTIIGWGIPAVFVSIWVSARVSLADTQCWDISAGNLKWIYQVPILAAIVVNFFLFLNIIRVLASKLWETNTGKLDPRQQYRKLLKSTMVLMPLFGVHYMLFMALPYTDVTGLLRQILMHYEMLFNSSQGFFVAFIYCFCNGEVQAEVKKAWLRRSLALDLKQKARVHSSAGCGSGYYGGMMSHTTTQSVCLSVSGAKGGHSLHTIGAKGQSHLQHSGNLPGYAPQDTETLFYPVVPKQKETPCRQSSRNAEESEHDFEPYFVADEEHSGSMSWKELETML

[4] = biological target: T1, zebrafish PTH1R receptor, clone …; test: cell-based or functional assay
[5] = biological target: T1, zebrafish PTH1R receptor, clone …; test: competitive radioligand binding on intact COS-7 cells expressing the receptor, room temperature; unlabeled hPTH, radioligand not clearly stated (125I-rPTH or 125I-PTHrP)
Protocol: (§1) Peptides were synthesized by the MGH polymer core facility as described (Gardella et al., (1996)). Specific binding was calculated by subtracting radioligand binding in the presence of excess unlabeled peptide from the total binding. All points represent mean±S.E.M. of two to three replicates from two or more independent experiments.
(§2) Table 3. Binding and cAMP Signaling Properties of PTH and PTHrP Analogs on the zPTH1R and the zPTH3R Competitive binding and cAMP stimulation assays were performed at room temperature with intact COS-7 cells that expressed either the zPTH1R or the zPTH3R, as described in Materials and Methods. […] Values are the mean±SEM of at least three independent transfections. ND, not determined.

[6] = biological target: T2, zebrafish PTH1R receptor, clone …; test: as above
Protocol: as §1, §2

[7] = biological target: T3, zebrafish PTH3R receptor, transiently …; test: as above
Protocol: as §1, §2

[8] = biological target: T1, zebrafish PTH1R receptor, clone …; test: radioligand binding on COS-7 cells expressing the receptor
Protocol: (§3) Plasmid DNAs encoding the two full length zPTH1Rs (#25 and #29) and the zPTH3R were transiently expressed in COS-7 cells. COS-7 African green monkey kidney cells (approximately 200,000 cells/well in a 24-well plate) were cultured and transfected with plasmid DNA (200 ng/well) as described (Rubin et al., (1998)). After transfection, cells were cultured for 72 hrs at 37° with daily exchanges of medium, followed by an additional 24 hrs at 33° (Gardella et al., (1997)) until they were functionally evaluated after 96 hrs.
as §1

[9] = biological target: T2, zebrafish PTH1R receptor, clone …; test: as above
Protocol: as §3, §1

[10] = biological target: T3, zebrafish PTH3R receptor, transiently …; test: as above
Protocol: as §3, §1

Binder	cAMP EC50 [1]	cAMP Maximum [1]	cAMP EC50 [2]	cAMP Maximum [2]	cAMP EC50 [3]	cAMP Maximum [3]	IP accumulation (total inositol phosphates, 10^-6 M ligand) [4]	IC50 [5]	IC50 [6]	IC50 [7]	binding result [8]	binding result [9]	binding result [10]
B1	0.8 nM	106 pmol/well	~3 nM	90.4 pmol/well	5.98 nM	227 pmol/well	2 fold	~3 nM	~3 nM	~100 nM	–	–	–
B2	–	–	–	–	–	–	–	–	–	–	binds	binds	binds
